For 2 substances, stoichiometry N results are on record in PMC10115243 (Nature plants, 2023).

Assay [1] addresses GalS1-ΔSTEM (Populus trichocarpa GalS1 lacking the stem region, residues 73-113) (Populus trichocarpa). The experiment in a line: SEC-MALS. On the technique in general: In gel filtration, larger molecules generally elute earlier.
The target in assay [2] is Populus trichocarpa galactan synthase 1 (GalS1), residues 73-495, tag removed (Populus trichocarpa). Kind of assay: SEC-MALS.
Assay [3] shares this target. Kind of assay: SEC-MALS + other: SAXS.

Usually stoichiometry N stands for a count of units in the complex or per binding partner. In turn, “GalS1-ΔSTEM (Populus trichocarpa GalS1 lacking the stem region, residues 73-113) (domain or fragment)” came in with a stoichiometry N in assay [1] of 2.
On to “Populus trichocarpa galactan synthase 1 (GalS1), residues 73-495, tag removed (enzyme)”, for which the stoichiometry N in assay [2] and in assay [3] was 2 in each case.
